# Test results as given in patent US20050048060A1 (VLAAMS INTERUNIVERSITAIR INSTITUUT, published 2005).
# Target: T1, carcinoembryonic antigen (CEA) expressed on LS 174T cells (human, UniProt P06731 35-685)
# T1 sequence (looked up): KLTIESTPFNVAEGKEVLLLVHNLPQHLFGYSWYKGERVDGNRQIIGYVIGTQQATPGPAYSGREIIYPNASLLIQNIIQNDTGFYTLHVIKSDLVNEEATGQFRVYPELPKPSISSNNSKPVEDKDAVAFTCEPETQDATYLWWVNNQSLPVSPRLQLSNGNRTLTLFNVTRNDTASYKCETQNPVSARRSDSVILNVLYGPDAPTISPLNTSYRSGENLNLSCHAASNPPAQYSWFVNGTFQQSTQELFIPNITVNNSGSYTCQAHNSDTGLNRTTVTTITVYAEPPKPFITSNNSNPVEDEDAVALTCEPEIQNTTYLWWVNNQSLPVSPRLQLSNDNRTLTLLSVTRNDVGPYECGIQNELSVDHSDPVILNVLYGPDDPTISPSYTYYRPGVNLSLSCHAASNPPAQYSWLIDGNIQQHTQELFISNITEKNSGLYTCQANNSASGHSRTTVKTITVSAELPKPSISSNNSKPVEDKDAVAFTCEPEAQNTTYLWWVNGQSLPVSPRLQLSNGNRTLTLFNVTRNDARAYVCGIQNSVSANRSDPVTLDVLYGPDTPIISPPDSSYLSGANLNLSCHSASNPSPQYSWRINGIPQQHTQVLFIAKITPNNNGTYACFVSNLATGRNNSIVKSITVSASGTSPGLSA
# Experiment: cell-based or functional assay
binder,measurement,value
cAb-CEA5-βL conjugate (other) QVQLVESGGGSVQAGGSLRLSCAASGDTYGSYWMGWFRQAPGKEREGVAAINRGGGYTVYADSVKGRFTISRDTAKNTVYLQMNSLRPDDTADYYCAASGVLGGLHEDWFNYWGQGTQVTVSSAHHSEDPSSKAPKAPMGTPVSEKQLAEVVANTITPLMKAQSVPGMAVAVIYQGKPHYYTFGKADIAANKPVTPQTLFELGSISKTFTGVLGGDAIARGEISLDDAVTRYWPQLTGKQWQGIRMLDLATYTAGGLPLQVPDEVTDNASLLRFYQNWQPQWKPGTTRLYANASIGLFGALAVKPSGMPYEQAMTTRVLKPLKLDHTWINVPKAEEAHYAWGYRDGKAVRVSPGMLDAQAYGVKTNVQDMANWVMANMAPENVADASLKQGIALAQSRYWRIGSMYQGLGWEMLNWPVEANTVVEGSDSKVALAPLPVAEVNPPAPPVKASWVHKTGSTGGFGSYVAFIPEKQIGIVMLANTSYPNPARVEAAYHILEALQHHHHHH,concentration of 125I-labelled conjugate in LS 174T tumor xenografts against other tissues in nude mice,> 10 fold
